Measurements: article PMC4066579 (Nature methods, 2009)
Where two headings read alike, the source gives them in different places.

Legend:
[1] = molecular target: the molecule itself; assay: native MS
[2] = molecular target: the molecule itself; assay: native MS; remark: listed apart in the source

B1: EmrE-EFE(1–113), unmodified (free N-terminal methionine) (natural protein)
chain: MNPYIYLGGAILAEVIGTTLMKFSEGFTRLWPSVGTIICYCASFWLLAQTLAYIPTGIAYAIWSGVGIVLISLLSWGFFGQRLDLPAIIGMMLICAGVLIINLLSRSTPHEFE
**Q.** B1 was tested. Which “stoichiometry N” value [1] did it give?
**A.** 2

B2: EmrE-EFE(1–113), N-terminally formylated (natural protein)
chain: MNPYIYLGGAILAEVIGTTLMKFSEGFTRLWPSVGTIICYCASFWLLAQTLAYIPTGIAYAIWSGVGIVLISLLSWGFFGQRLDLPAIIGMMLICAGVLIINLLSRSTPHEFE
modifications: formylation at an N-terminal methionine
**Q.** B2 was tested. Which “stoichiometry N” value [1] did it give?
**A.** 2

B3: MacB (natural protein, UniProt P75831 1-648, looked up)
chain: MTPLLELKDIRRSYPAGDEQVEVLKGISLDIYAGEMVAIVGASGSGKSTLMNILGCLDKATSGTYRVAGQDVATLDADALAQLRREHFGFIFQRYHLLSHLTAEQNVEVPAVYAGLERKQRLLRAQELLQRLGLEDRTEYYPAQLSGGQQQRVSIARALMNGGQVILADEPTGALDSHSGEEVMAILHQLRDRGHTVIIVTHDPQVAAQAERVIEIRDGEIVRNPPAIEKVNVTGGTEPVVNTVSGWRQFVSGFNEALTMAWRALAANKMRTLLTMLGIIIGIASVVSIVVVGDAAKQMVLADIRSIGTNTIDVYPGKDFGDDDPQYQQALKYDDLIAIQKQPWVASATPAVSQNLRLRYNNVDVAASANGVSGDYFNVYGMTFSEGNTFNQEQLNGRAQVVVLDSNTRRQLFPHKADVVGEVILVGNMPARVIGVAEEKQSMFGSSKVLRVWLPYSTMSGRVMGQSWLNSITVRVKEGFDSAEAEQQLTRLLSLRHGKKDFFTWNMDGVLKTVEKTTRTLQLFLTLVAVISLVVGGIGVMNIMLVSVTERTREIGIRMAVGARASDVLQQFLIEAVLVCLVGGALGITLSLLIAFTLQLFLPGWEIGFSPLALLLAFLCSTVTGILFGWLPARNAARLDPVDALARE
**Q.** B3 was tested. Which “stoichiometry N” value [2] did it give?
**A.** 2

B4: MexB (natural protein, Pseudomonas aeruginosa strain PAO1, UniProt P52002 1-1046, looked up)
chain: MSKFFIDRPIFAWVIALVIMLAGGLSILSLPVNQYPAIAPPAIAVQVSYPGASAETVQDTVVQVIEQQMNGIDNLRYISSESNSDGSMTITVTFEQGTDPDIAQVQVQNKLQLATPLLPQEVQRQGIRVTKAVKNFLMVVGVVSTDGSMTKEDLSNYIVSNIQDPLSRTKGVGDFQVFGSQYSMRIWLDPAKLNSYQLTPGDVSSAIQAQNVQISSGQLGGLPAVKGQQLNATIIGKTRLQTAEQFENILLKVNPDGSQVRLKDVADVGLGGQDYSINAQFNGSPASGIAIKLATGANALDTAKAIRQTIANLEPFMPQGMKVVYPYDTTPVVSASIHEVVKTLGEAILLVFLVMYLFLQNFRATLIPTIAVPVVLLGTFGVLAAFGFSINTLTMFGMVLAIGLLVDDAIVVVENVERVMAEEGLSPREAARKSMGQIQGALVGIAMVLSAVFLPMAFFGGSTGVIYRQFSITIVSAMALSVIVALILTPALCATMLKPIEKGDHGEHKGGFFGWFNRMFLSTTHGYERGVASILKHRAPYLLIYVVIVAGMIWMFTRIPTAFLPDEDQGVLFAQVQTPPGSSAERTQVVVDSMREYLLEKESSSVSSVFTVTGFNFAGRGQSSGMAFIMLKPWEERPGGENSVFELAKRAQMHFFSFKDAMVFAFAPPSVLELGNATGFDLFLQDQAGVGHEVLLQARNKFLMLAAQNPALQRVRPNGMSDEPQYKLEIDDEKASALGVSLADINSTVSIAWGSSYVNDFIDRGRVKRVYLQGRPDARMNPDDLSKWYVRNDKGEMVPFNAFATGKWEYGSPKLERYNGVPAMEILGEPAPGLSSGDAMAAVEEIVKQLPKGVGYSWTGLSYEERLSGSQAPALYALSLLVVFLCLAALYESWSIPFSVMLVVPLGVIGALLATSMRGLSNDVFFQVGLLTTIGLSAKNAILIVEFAKELHEQGKGIVEAAIEACRMRLRPIVMTSLAFILGVVPLAISTGAGSGSQHAIGTGVIGGMVTATVLAIFWVPLFYVAVSTLFKDEASKQQASVEKGQ
**Q.** How did the “stoichiometry N” value [2] turn out when B4 was run?
**A.** 3
